Results taken from the supplement of paper PMC9732359.
± gives the uncertainty stated by the source.

Experiment: protein stability index of a GFP-peptide fusion (yeast GPS) (PSI 1-4); higher = more stable; sorted into four equal gates, so the index is relative within each strain
Conditions: pdr5∆
Procedure, shortened: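 Tiled yeast protein peptides of 17 residues were each joined downstream of GFP, on plasmids that also express Cherry. The pooled library was maintained in yeast, and mid-log cultures in leucine-free medium were sorted into four equal gates on the GFP/Cherry ratio. Plasmids from every gate were amplified by PCR and sequenced on Illumina, with barcodes linking reads to strains. The protein stability index of a peptide is its gate-number-weighted read frequency summed over the gates.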

Row | Sequence | protein stability index
1 | SIQEQIQEFQGNPYIEL [SNF5] | 3.3 ± 0.08
2 | SIRSRRPYQVNVLIGGY [PRE1] | 2.88 ± 0.09

Same assay, conditions: san1∆

Row | Sequence | protein stability index
3 | RSTDRDRVKVIECFKPG [CSL4] | 3.26 ± 0.1
4 | RTAKAYLKVSEEEIKKF [PRP8] | 3.12 ± 0.053
5 | RTIANQDHFHRLNYLYQ [RPR2] | 2.73 ± 0.034
6 | RTLEAITATLVGTVRCE [CSL4] | 1.5 ± 0.14
7 | RTLLTEEIEPKLEKLRN [SMC2] | 3.18 ± 0.042
8 | RTLTAVHDKVLEDMVFP [RPS7B] | 2.81 ± 0.068
9 | RTMLELITQLDGFDPRG [RPT1] | 2.91 ± 0.066
10 | RTTTNTTAEPKAKRAKT [TAF14] | 3.1 ± 0.088
11 | RVIVAGTLDINPDDDYG [FAS1] | 2.85 ± 0.06
12 | RVMKSLSINEKDFVTMA [YCG1] | 2.1 ± 0.082
13 | RVQLSGKIQENIPFWKH [SRP72] | 2.13 ± 0.07
14 | RVRAESLHSNSFSLTVS [YJL039C/NUP192] | 1.43 ± 0.17
15 | RVRTDDSVLLNRGNKKR [YML031W/NDC1] | 3.08 ± 0.058
16 | RYDCSFCGKKTVKRGAA [RPL43A] | 2.21 ± 0.11
17 | RYFFWLQEKNSGNLPLN [RPN13] | 2.81 ± 0.063
18 | RYKPKSHLWEIDIPLDE [RPC37] | 3.03 ± 0.22
19 | SAAINNEDARAIFNNEF [RPN4] | 3.04 ± 0.27
20 | SADYEILYEIRALYTPF [YDL116W/NUP84] | 2.5 ± 0.07
21 | SAINQYNRRQDKKNKRL [SNF2] | 3.23 ± 0.074
22 | SAKNRVVILARAKALGI [RPL32] | 1.76 ± 0.081
23 | SAKPTFSFSKSEEERKS [YOR098C/NUP1] | 1.93 ± 0.24
24 | SALTSPTDSSKILQKRS [SIR3] | 2.92 ± 0.047
25 | SAPPPALPHVEINQVSL [RGR1] | 2.48 ± 0.09
26 | SATSKPAFSFGAKPEEK [YJL041W/NSP1] | 3.16 ± 0.11

Row | Sequence | protein stability index
27 | SCGEEEFFSTNWLSIFN [REC8] | 3.34 ± 0.1
28 | SCIAVMAGLMHFKKPDI [RRP45] | 1.77 ± 0.08
29 | SDDQQEAVELVIGLDSE [YML103C/NUP188] | 3.39 ± 0.12
30 | SDEEEVTEMSNNANVLG [BRR2] | 2.83 ± 0.063
31 | SDFISKLEYPHTDVSSS [RPN3] | 2.82 ± 0.047
32 | SDIPKTTVQVAEEAIVN [PRE4] | 1.81 ± 0.28
33 | SDKTIVPTSIQTKRWPT [SIN4] | 2.35 ± 0.054
34 | SDPLTVFSESCSNESFA [SNU114] | 2.58 ± 0.047
35 | SDPQMKVFDTLTRFSHD [RPN1] | 2.78 ± 0.18
36 | SDRECPKCHSRENVFFQ [RPB9] | 2.47 ± 0.058
37 | SDVLLFQLPTTCVSMAP [RGR1] | 1.87 ± 0.05
38 | SEDSMNVQLRDVIATEP [SMD3] | 3.09 ± 0.065
39 | SEHVFDYFFYFLVLYDV [NUT1] | 2.26 ± 0.045
40 | SEILIISSLMFDEEFDP [IRR1] | 2.67 ± 0.098
41 | SEILSFDPVYTTVITVF [YML103C/NUP188] | 1.6 ± 0.11
42 | SEIWDVSRGQSAVLLET [PRP8] | 3.12 ± 0.26
43 | SELAPIEEHPTVVDAID [IRR1] | 3.25 ± 0.11
44 | SELLARDIFQEDEENSD [RGR1] | 3.02 ± 0.14
45 | SESGSKLNVDQFISSRQ [POP1] | 3.29 ± 0.055
46 | SESKDSDKPSLPSAVDG [YLR335W/NUP2] | 3.28 ± 0.11
47 | SEVGNCSGSGMGGVSAL [FAS2] | 3.29 ± 0.056
48 | SEYSSEASNTPIEHQFN [PRE7] | 3 ± 0.036
49 | SFLHVDDKLAYIRVNHA [POP8] | 2.21 ± 0.11
50 | SFVHGVVGQLFQIDNDN [SMC2] | 3.13 ± 0.068

Row | Sequence | protein stability index
51 | SFYRVEKIKKINYHQYI [SSN2] | 1.39 ± 0.2
52 | SGDESNVISSKDWELEA [YDL116W/NUP84] | 3.45 ± 0.06
53 | SGEKIDFLLSDWNKRFS [BRR2] | 2.88 ± 0.067
54 | SGGSRNTSESLLVDIQK [SMC2] | 2.33 ± 0.12
55 | SGKLRDYQVQGLNWLIS [ISW2] | 2.33 ± 0.065
56 | SGSTEKAFKICEAAVEI [SIR3] | 2.84 ± 0.15
57 | SGTSVFEVEMILMQQQM [SRP54] | 3.18 ± 0.07
58 | SGVMDKSVLGDGKKHSV [RPO31] | 3.31 ± 0.2
59 | SGVPRLKEILNVAKNMK [RPO21] | 1.32 ± 0.26
60 | SHHLKADTIDHDELIDS [YGL172W/NUP49] | 3.08 ± 0.042
61 | SHTGLVRKYDLNICRQC [RPS29B] | 1.94 ± 0.092
62 | SHTQNIGHLIKTRFKGS [SMC2] | 1.96 ± 0.13
63 | SHVENLEEKLYQMQSNY [YIL149C/MLP2] | 2.54 ± 0.05
64 | SHVNKYGLIRGLKFASF [PRP8] | 1.91 ± 0.089
65 | SIGKNPFNKPNIETGEN [SWI3] | 2.87 ± 0.037
66 | SIGYETELKKITDKTIK [IRR1] | 2.99 ± 0.062
67 | SIIQSKQDCVDWFTYSY [BRR2] | 1.69 ± 0.085
68 | SILRKSSPEEPFMSYSP [SNF12] | 2.55 ± 0.088
69 | SILVIVQKILPLSNEVF [SWI1] | 1.3 ± 0.073
70 | SIPPATIETFNEAALVV [RPB5] | 2.02 ± 0.11
71 | SIQDTSTVAKNVSFVLP [YCG1] | 3.29 ± 0.08
72 | SIQEQIQEFQGNPYIEL [SNF5] | 3.49 ± 0.082
73 | SIRSRRPYQVNVLIGGY [PRE1] | 1.71 ± 0.19

Same assay, conditions: ubr1∆

Row | Sequence | protein stability index
74 | RSTDEFNGAQLKAVTVE [RPT5] | 2.06 ± 0.19
75 | RSTDRDRVKVIECFKPG [CSL4] | 2.99 ± 0.088
76 | RTAKAYLKVSEEEIKKF [PRP8] | 3.26 ± 0.049
77 | RTIANQDHFHRLNYLYQ [RPR2] | 2.58 ± 0.026
78 | RTLEAITATLVGTVRCE [CSL4] | 2.47 ± 0.16
79 | RTLLTEEIEPKLEKLRN [SMC2] | 3.21 ± 0.054
80 | RTLTAVHDKVLEDMVFP [RPS7B] | 3.27 ± 0.074
81 | RTMLELITQLDGFDPRG [RPT1] | 2.73 ± 0.096
82 | RTTTNTTAEPKAKRAKT [TAF14] | 2.59 ± 0.2
83 | RVHRRNNRWAENNYKKR [RPS23A] | 3.54 ± 0.1
84 | RVIVAGTLDINPDDDYG [FAS1] | 2.51 ± 0.058
85 | RVMKSLSINEKDFVTMA [YCG1] | 2.16 ± 0.042
86 | RVQLSGKIQENIPFWKH [SRP72] | 2.4 ± 0.041
87 | RVRAESLHSNSFSLTVS [YJL039C/NUP192] | 1.75 ± 0.064
88 | RVRTDDSVLLNRGNKKR [YML031W/NDC1] | 3.3 ± 0.097
89 | RYDCSFCGKKTVKRGAA [RPL43A] | 2.12 ± 0.053
90 | RYFFWLQEKNSGNLPLN [RPN13] | 2.87 ± 0.11
91 | SADYEILYEIRALYTPF [YDL116W/NUP84] | 2.06 ± 0.066
92 | SAINQYNRRQDKKNKRL [SNF2] | 3.25 ± 0.087
93 | SAKNRVVILARAKALGI [RPL32] | 2.05 ± 0.042
94 | SAKPTFSFSKSEEERKS [YOR098C/NUP1] | 2.79 ± 0.25
95 | SALTSPTDSSKILQKRS [SIR3] | 3.04 ± 0.039
96 | SAPPPALPHVEINQVSL [RGR1] | 2.33 ± 0.052
97 | SATSKPAFSFGAKPEEK [YJL041W/NSP1] | 2.55 ± 0.14
98 | SCGEEEFFSTNWLSIFN [REC8] | 2.96 ± 0.087

Row | Sequence | protein stability index
99 | SCIAVMAGLMHFKKPDI [RRP45] | 1.69 ± 0.035
100 | SDDQQEAVELVIGLDSE [YML103C/NUP188] | 3.38 ± 0.045
101 | SDEEEVTEMSNNANVLG [BRR2] | 3.17 ± 0.046
102 | SDFISKLEYPHTDVSSS [RPN3] | 2.5 ± 0.045
103 | SDGIVLAAERKVTSTLL [PRE9] | 1.85 ± 0.075
104 | SDIPKTTVQVAEEAIVN [PRE4] | 2.54 ± 0.091
105 | SDKTIVPTSIQTKRWPT [SIN4] | 2.77 ± 0.048
106 | SDPLTVFSESCSNESFA [SNU114] | 2.96 ± 0.038
107 | SDPQMKVFDTLTRFSHD [RPN1] | 2.94 ± 0.21
108 | SDRECPKCHSRENVFFQ [RPB9] | 2.79 ± 0.04
109 | SDVLLFQLPTTCVSMAP [RGR1] | 1.77 ± 0.028
110 | SEDSMNVQLRDVIATEP [SMD3] | 3.23 ± 0.039
111 | SEHVFDYFFYFLVLYDV [NUT1] | 2.36 ± 0.034
112 | SEILIISSLMFDEEFDP [IRR1] | 2.97 ± 0.07
113 | SEILSFDPVYTTVITVF [YML103C/NUP188] | 1.62 ± 0.048
114 | SEIWDVSRGQSAVLLET [PRP8] | 2.04 ± 0.091
115 | SELAPIEEHPTVVDAID [IRR1] | 3.05 ± 0.071
116 | SELLARDIFQEDEENSD [RGR1] | 3.27 ± 0.17
117 | SEMLAKYSDILLKKATK [CDC53] | 2.47 ± 0.17
118 | SESGSKLNVDQFISSRQ [POP1] | 3.21 ± 0.068
119 | SESKDSDKPSLPSAVDG [YLR335W/NUP2] | 2.95 ± 0.15
120 | SEVGNCSGSGMGGVSAL [FAS2] | 3.31 ± 0.05
121 | SEYSSEASNTPIEHQFN [PRE7] | 3.3 ± 0.1
122 | SFLHVDDKLAYIRVNHA [POP8] | 2.56 ± 0.061
123 | SFVHGVVGQLFQIDNDN [SMC2] | 3.25 ± 0.13

Row | Sequence | protein stability index
124 | SFYRVEKIKKINYHQYI [SSN2] | 1.62 ± 0.1
125 | SGDESNVISSKDWELEA [YDL116W/NUP84] | 3.41 ± 0.066
126 | SGEKIDFLLSDWNKRFS [BRR2] | 2.79 ± 0.056
127 | SGGEREIQRTMLELLNQ [RPT2] | 3.15 ± 0.18
128 | SGGSRNTSESLLVDIQK [SMC2] | 1.73 ± 0.13
129 | SGKLRDYQVQGLNWLIS [ISW2] | 2.85 ± 0.039
130 | SGSTEKAFKICEAAVEI [SIR3] | 3.18 ± 0.16
131 | SGTSVFEVEMILMQQQM [SRP54] | 3.22 ± 0.098
132 | SGVPRLKEILNVAKNMK [RPO21] | 1.4 ± 0.082
133 | SHHLKADTIDHDELIDS [YGL172W/NUP49] | 3.08 ± 0.038
134 | SHTGLVRKYDLNICRQC [RPS29B] | 2.09 ± 0.088
135 | SHTQNIGHLIKTRFKGS [SMC2] | 2.27 ± 0.066
136 | SHVENLEEKLYQMQSNY [YIL149C/MLP2] | 2.86 ± 0.044
137 | SHVNKYGLIRGLKFASF [PRP8] | 1.34 ± 0.03
138 | SIGKNPFNKPNIETGEN [SWI3] | 2.97 ± 0.044
139 | SIGYETELKKITDKTIK [IRR1] | 3 ± 0.082
140 | SIIQSKQDCVDWFTYSY [BRR2] | 1.97 ± 0.033
141 | SILRKSSPEEPFMSYSP [SNF12] | 2.79 ± 0.059
142 | SILVIVQKILPLSNEVF [SWI1] | 1.56 ± 0.037
143 | SIPPATIETFNEAALVV [RPB5] | 3.15 ± 0.13
144 | SIQDTSTVAKNVSFVLP [YCG1] | 3.04 ± 0.054
145 | SIQEQIQEFQGNPYIEL [SNF5] | 3.31 ± 0.059
146 | SIRSRRPYQVNVLIGGY [PRE1] | 3.04 ± 0.1
